# Data: article PMC8993412 (Journal of Molecular Biology, 2022)
# B1: IgG 16485 (anti-N) (antibody, V domains shown)
# VH: EVQLVESGGGLVQPGGSLRLSCAASGFNIYSSSIHWVRQAPGKGLEWVAYISSYSGYTSYADSVKGRFTISADTSKNTAYLQMNSLRAEDTAVYYCARVPWYYAYSFGFFASFGGMDYWGQGTLVTVSS
# VL: DIQMTQSPSSLSASVGDRVTITCRASQSVSSAVAWYQQKPGKAPKLLIYSASSLYSGVPSRFSGSRSGTDFTLTISSLQPEDFATYYCQQYSGYHFFPITFGQGTKVEIK
# Target: SARS-CoV-2 nucleocapsid (N) protein, full-length (recombinant) (SARS-CoV-2, reference, UniProt P0DTC9)
# Test: ELISA
binder,measurement,value
B1,EC50,0.019 µM
